Test results as given in PMC5226681.

What was measured:
[1] = TZM-bl pseudovirus neutralization; conditions: glycan lost; control: wild-type CAP45
[2] = TZM-bl pseudovirus neutralization, plateau; conditions: control: CAP45 pseudovirus grown normally in 293T

Substance	other: neutralisation sensitivity [1]	other: neutralisation sensitivity ([2]; glycan changed form)	other results
HIV-1 envelope glycoprotein (Env, gp160) CAP45: N611D	decreases	–	–
HIV-1 envelope glycoprotein (Env, gp160) CAP45: 293S GnTI(-/-) cells	–	no change	–
HIV-1 envelope glycoprotein (Env, gp160) CAP45: N230D	no change	–	–
HIV-1 envelope glycoprotein (Env, gp160) CAP45: swainsonine	–	no change	–
HIV-1 envelope glycoprotein (Env, gp160) CAP45: benzyl 2-acetamido-2-deoxy-α-D-galactopyranoside	–	–	other: neutralisation sensitivity ([2]; glycan lost): no change
HIV-1 envelope glycoprotein (Env, gp160) CAP45: N276A	abolishes	–	–
HIV-1 envelope glycoprotein (Env, gp160) CAP45: N276D	decreases	–	–
HIV-1 envelope glycoprotein (Env, gp160) CAP45: kifunensine	–	no change	–
